Measurements taken from patent US20220177604A1 (ARGENX, published 2022).
Where a chain is given by its changes, count along the chain named.

B1: CL-2C mAb 19 (antibody, V domains shown)
VH: QVQLVQSGAEVMKPGSSVKVSCKASGYTFSWYHLEWVRQAPGHGLEWMGEIDPGTFTTNYNEKFKARVTFTADTSTSTAYMELSSLRSEDTAVYYCARFSHFSGHNYDYFDYWGQGTLVTVSS
VL: EIVMTQSPATLSVSPGERATLSCRASQSIGTNIHWYQQKPGQAPRLLIYHASESISGIPARFSGSGSGTEFTLTISSLQSEDFAVYYCQQSDSHPTTFGGGTKVEIK
notes: also called VK50H92D94H + VH33H100AH
B2: CL-2C mAb 31 (antibody, V domains shown)
VH: B1 VH with H33W, N59H, H105S, N106H
VL: B1 VL with H50Y, D92W
notes: also called VK94H + VH58H100BH
B3: CL-2C mAb 20 (antibody, V domains shown)
VH: B1 VH with H33W, H105S
VL: B1 VL
notes: also called VK50H92D94H + VHWT
B4: CL-2C mAb 38 (antibody, V domains shown)
VH: B1 VH with H105S, N106H
VL: B1 VL with H50Y, D92W, H94W
notes: also called VKWT + VH33H100BH
B5: CL-2C mAb 34 (antibody, V domains shown)
VH: B1 VH
VL: B1 VL with H50Y, D92W
notes: also called VK94H + VH33H100AH
B6: CL-2C mAb 40 (antibody, V domains shown)
VH: B1 VH with H33W, H105S
VL: B1 VL with H50Y, D92W, H94W
notes: also called VKWT + VHWT
B7: CL-2C mAb 30 (antibody, V domains shown)
VH: B1 VH with H33W, H105S
VL: B1 VL with D92W, H94W
notes: also called VK50H + VHWT
B8: CL-2C mAb 26 (antibody, V domains shown)
VH: B1 VH with H33W, N59H, H105S, N106H
VL: B1 VL with D92W, H94W
notes: also called VK50H + VH58H100BH
B9: CL-2C mAb 28 (antibody, V domains shown)
VH: B1 VH with H105S, N106H
VL: B1 VL with D92W, H94W
notes: also called VK50H + VH33H100BH
B10: CL-2C mAb 27 (antibody, V domains shown)
VH: B1 VH with H105S, Y107H
VL: B1 VL with D92W, H94W
notes: also called VK50H + VH33H100CH
B11: CL-2C mAb 29 (antibody, V domains shown)
VH: B1 VH
VL: B1 VL with D92W, H94W
notes: also called VK50H + VH33H100AH
B12: CL-2C mAb 33 (antibody, V domains shown)
VH: B1 VH with H105S, N106H
VL: B1 VL with H50Y, D92W
notes: also called VK94H + VH33H100BH
B13: CL-2C mAb 36 (antibody, V domains shown)
VH: B1 VH with H33W, N59H, H105S, N106H
VL: B1 VL with H50Y, D92W, H94W
notes: also called VKWT + VH58H100BH
B14: CL-2C mAb 32 (antibody, V domains shown)
VH: B1 VH with H105S, Y107H
VL: B1 VL with H50Y, D92W
notes: also called VK94H + VH33H100CH
B15: CL-2C mAb 39 (antibody, V domains shown)
VH: B1 VH
VL: B1 VL with H50Y, D92W, H94W
notes: also called VKWT + VH33H100AH
B16: CL-2C mAb 35 (antibody, V domains shown)
VH: B1 VH with H33W, H105S
VL: B1 VL with H50Y, D92W
notes: also called VK94H + VHWT

The binders below were run against T1, human immunoglobulin E (hIgE) (human, UniProt P01854-1 1-428) (assay: SPR (Biacore) on hIgE).
T1 construct: also called human IgE; Native IgE (Abcam)
T1 sequence (P01854 whole entry): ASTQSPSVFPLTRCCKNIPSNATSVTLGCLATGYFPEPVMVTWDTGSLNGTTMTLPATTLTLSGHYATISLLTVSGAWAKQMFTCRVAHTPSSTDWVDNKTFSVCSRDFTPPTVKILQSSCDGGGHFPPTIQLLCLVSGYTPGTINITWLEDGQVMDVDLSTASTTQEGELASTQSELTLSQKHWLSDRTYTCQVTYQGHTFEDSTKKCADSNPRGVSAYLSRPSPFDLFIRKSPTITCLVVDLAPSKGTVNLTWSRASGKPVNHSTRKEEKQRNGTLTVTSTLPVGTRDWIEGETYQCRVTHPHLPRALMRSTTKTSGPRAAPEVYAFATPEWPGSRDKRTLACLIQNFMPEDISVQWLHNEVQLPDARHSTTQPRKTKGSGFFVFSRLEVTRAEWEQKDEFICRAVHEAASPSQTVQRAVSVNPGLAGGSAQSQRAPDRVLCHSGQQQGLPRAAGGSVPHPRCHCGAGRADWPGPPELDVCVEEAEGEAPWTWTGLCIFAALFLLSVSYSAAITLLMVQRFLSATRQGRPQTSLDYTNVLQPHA
Description: The ratio of KD measured at pH 5.5 versus KD measured at pH 7.4 was calculated for each of the CL-2C antibodies.

KD Ratio pH 5.5/pH 7.4 | Binder
5.2 | B1
5.5 | B2
1.1 | B3
6.5 | B4
3 | B5
0.6 | B6
1 | B7
8.9 | B8
9 | B9
7.4 | B10
3.8 | B11
7 | B12
4.3 | B13
6.2 | B14
4.6 | B15
0.6 | B16
